Changes are numbered by the printed parent chain. Like-named read-outs stand apart in the source and are kept apart here.
Legend:
[1] = target: T1, B7-H4 expressed on cells (MX-1 cells; CHO-S cells stably expressing B7-H4) (human, UniProt Q7Z7D3 25-282); test: flow cytometry (FACS) on MX-1 cells
T1 construct: whole, on cells; also called huB7-H4; antigens expressed by cells
T1 sequence (looked up): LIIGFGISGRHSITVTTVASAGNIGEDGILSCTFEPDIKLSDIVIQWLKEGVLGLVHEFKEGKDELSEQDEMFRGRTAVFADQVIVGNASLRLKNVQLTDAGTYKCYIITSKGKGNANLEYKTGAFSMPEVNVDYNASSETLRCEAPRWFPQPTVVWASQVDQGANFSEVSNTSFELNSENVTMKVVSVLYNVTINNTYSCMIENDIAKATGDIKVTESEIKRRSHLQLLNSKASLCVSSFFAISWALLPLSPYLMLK
Description: The cultured MX-1 cells were collected, cell density was adjusted with PBS pH 7.4, then plated onto a 96-well V-shaped bottom plate with 1×10⁵ cells per well, and centrifuged at 2000 rpm for 5 minutes to remove supernatant. 100 μl of the serially diluted chimeric antibody solution was added (diluted with 0.5% BSA in PBS to obtain a gradient of 3-fold dilutions, starting from 1 μM, with a total of 10 doses) into each well, mixed, and incubated for 1 hour at 4° C. with shaking; the culture was centrifuged at 2000 rpm for 5 minutes to remove the supernatant, and the cells were washed twice with PBS, and 100 μl of FITC-labeled goat anti-human secondary antibody (Abeam, cat #ab97224) diluted with 0.5% BSA in PBS was added into each well, mixed well and incubated for 30 minutes at 4° C. in a shaker. Centrifugation was performed at 2000 rpm for 5 minutes and the supernatant was removed. Cells were washed twice with PBS and resuspended in PBS. The signals were detected using flow cytometer (BECKMANCOULTER, model DxFLEX), and the concentration curve was plotted and the results were analyzed. As indicated in the table and figure, humanized antibodies 2F7, 2F8, 2G6 and 1C9 show positive bindings to MX-1 cells on which B7-H4 was highly expressed.

[2] = target: T2, Human B7-H4 with HisFlag tag (huB7-H4-his) (human, UniProt Q7Z7D3 25-258); test: SPR Biacore T200, antibody coupled to CM5 chip, hu-B7-H4-his in flow, 1:1 model
T2 construct: also called HuB7-H4 His protein; huB7-H4-HF
T2 sequence: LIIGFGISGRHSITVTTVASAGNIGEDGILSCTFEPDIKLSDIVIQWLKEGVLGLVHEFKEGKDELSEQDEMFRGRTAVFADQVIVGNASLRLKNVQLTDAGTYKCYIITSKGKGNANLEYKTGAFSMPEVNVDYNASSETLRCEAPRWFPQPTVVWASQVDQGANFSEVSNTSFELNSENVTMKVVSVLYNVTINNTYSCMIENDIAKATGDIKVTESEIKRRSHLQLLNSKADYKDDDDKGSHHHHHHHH

[3] = target: T3, antigen fragment P12 (TVASAGNIGEDGILSCTFEP) (human); test: indirect ELISA on antigen fragment
T3 peptide: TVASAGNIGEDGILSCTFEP

[4] = target: T4, antigen fragment TVASAGNIGEDGILSCTAEP (human); test: indirect ELISA on antigen fragment, alanine scan
T4 construct: Alanine-scan variant of P12; the entry already carries the alanine; also called P12 alanine mutant (F to A)
T4 peptide: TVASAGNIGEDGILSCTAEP

[5] = target: T5, antigen fragment TVASAGNIGEDGIASCTFEP (human); test: indirect ELISA on antigen fragment, alanine scan
T5 construct: Alanine-scan variant of P12; the entry already carries the alanine; also called P12 alanine mutant (L to A)
T5 peptide: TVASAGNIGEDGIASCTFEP

[6] = target: T6, antigen fragment TVASAGNIGEDGILSATFEP (human); test: indirect ELISA on antigen fragment, alanine scan
T6 construct: Alanine-scan variant of P12; the entry already carries the alanine; also called P12 alanine mutant (C to A)
T6 peptide: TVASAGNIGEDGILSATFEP

[7] = target: T4, antigen fragment TVASAGNIGEDGILSCTAEP; test: indirect ELISA on antigen fragment, alanine scan
[8] = target: T7, antigen fragment TVASAGNIGEDGILSCAFEP (human); test: indirect ELISA on antigen fragment, alanine scan
T7 construct: Alanine-scan variant of P12; the entry already carries the alanine; also called P12 alanine mutant (T to A)
T7 peptide: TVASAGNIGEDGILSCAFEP

[9] = target: T8, antigen fragment TVASAGNIGEDGALSCTFEP (human); test: indirect ELISA on antigen fragment, alanine scan
T8 construct: Alanine-scan variant of P12; the entry already carries the alanine; also called P12 alanine mutant (I to A)
T8 peptide: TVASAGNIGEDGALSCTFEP

[10] = target: T9, antigen fragment TVASAGNIGEDGILSCTFEA (human); test: indirect ELISA on antigen fragment, alanine scan
T9 construct: Alanine-scan variant of P12; the entry already carries the alanine; also called P12 alanine mutant (P to A)
T9 peptide: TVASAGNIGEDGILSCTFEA

[11] = target: T5, antigen fragment TVASAGNIGEDGIASCTFEP; test: indirect ELISA on antigen fragment, alanine scan
[12] = target: T6, antigen fragment TVASAGNIGEDGILSATFEP; test: indirect ELISA on antigen fragment, alanine scan
[13] = target: T3, antigen fragment P12 …; test: indirect ELISA on antigen fragment
[14] = target: T4, antigen fragment TVASAGNIGEDGILSCTAEP; test: indirect ELISA on antigen fragment, alanine scan
Description: (§1) The method procedures were the same as described in Example 3 (1): in vitro indirect ELISA binding assay. […] To further confirm the epitope to which the antibody binds, alanine scan was performed on the antigen fragment P12, that is, each single amino acid located in P12 was mutated to alanine respectively.

[15] = target: T7, antigen fragment TVASAGNIGEDGILSCAFEP; test: indirect ELISA on antigen fragment, alanine scan
Description: as §1

[16] = target: T8, antigen fragment TVASAGNIGEDGALSCTFEP; test: indirect ELISA on antigen fragment, alanine scan
Description: as §1

[17] = target: T5, antigen fragment TVASAGNIGEDGIASCTFEP; test: indirect ELISA on antigen fragment, alanine scan
Description: as §1

[18] = target: T10, antigen fragment TVASAGNIGEDGILSCTFAP (human); test: indirect ELISA on antigen fragment, alanine scan
T10 construct: Alanine-scan variant of P12; the entry already carries the alanine; also called P12 alanine mutant (E to A)
T10 peptide: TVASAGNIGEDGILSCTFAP
Description: as §1

[19] = target: T6, antigen fragment TVASAGNIGEDGILSATFEP; test: indirect ELISA on antigen fragment, alanine scan
Description: as §1

[20] = target: T3, antigen fragment P12 …; test: indirect ELISA on antigen fragment
Description: as §1

B1: humanized anti-B7-H4 antibody hu2F8 (antibody, human IgG1, kappa, V domains shown)
VH: EVQLVQSGAEVKKPGASVKVSCKASGYTFTSSWMNWVRQAPGQRLEWMGGIYPNRGNIEYNEKFKGRVTLTVDTSASTAYMELSSLRSEDTAVYYCARDSRFSYWGQGTLVTVSS
VL: DIQMTQSPSSLSASVGDRVTITCKASQDVRTAVAWYQQKPGKAPKLLISSTSYRYTGVPSRFSGSGSGTDFTFTISSLQPEDIATYYCQQHYSTPLTFGGGTKVEIKR
notes: human IgG1 / kappa; also called humanized antibody 2F8
- EC50 [1]: 7.26 nM
- Kd [2]: 0.25 nM
- koff [2]: 0.000112 s⁻¹
- kon [2]: 447000 M⁻¹ s⁻¹

B2: humanized anti-B7-H4 antibody hu1C9 (antibody, human IgG1, kappa, V domains shown)
VH: B1 VH with Y27D, S31T, S32Y, P53L, N57S, I58S
VL: B1 VL with R30S, T51A, S93N
notes: human IgG1 / kappa; also called humanized antibody 1C9
- EC50 [1]: 7.25 nM
- EC50 [3]: 272 nM
- EC50 [4]: 488 nM
- EC50 [5]: 467 nM
- EC50 [6]: 292 nM
- Kd [2]: ≤ 0.0298 nM
- koff [2]: ≤ 1e-05 s⁻¹
- kon [2]: 335000 M⁻¹ s⁻¹

B3: humanized anti-B7-H4 antibody hu2G6 (antibody, human IgG1, kappa, V domains shown)
VH: EVQLLESGGGLVQPGGSLRLSCAASGFTFSRYGMSWVRQAPGKGLEWVSGINGGGSYTYYLDTVKGRFTISRDNARNTLYLQMSSLRAEDTAVYYCVSQGSNYYFDYWGQGTLVTVSS
VL: DIRMTQSPSSLSASVGDRVTITCHASQGISSNIGWLQQKPGKAPKALIYHGTNLEDGVPSRFSGSGSGADYTLTISSLQPEDFATYYCVQYAQFPYTFGGGTKVEIKR
notes: human IgG1 / kappa; also called humanized antibody 2G6
- EC50 [1]: 14.3 nM
- EC50 [7]: 2600 nM
- EC50 [8]: 2290 nM
- EC50 [9]: 2630 nM
- EC50 [10]: 2370 nM
- EC50 [11]: 3160 nM
- EC50 [12]: 3480 nM
- Kd [2]: ≤ 0.0135 nM
- koff [2]: ≤ 1e-05 s⁻¹
- kon [2]: 741000 M⁻¹ s⁻¹
- EC50 [13]: 793 nM

B4: humanized anti-B7-H4 antibody hu2F7 (antibody, human IgG1, kappa, V domains shown)
VH: EVQLVESGGGLVQPGGSLRLSCAASGFTFSNYYMSWVRQAPGKGLEWVAYVSSGGGSTYYSDSVKGRFTISRDNAKNTLYLQMSSLRAEDTAVYYCTRESYSQGNYFDYWGQGTTVTVSS
VL: EIVMTQSPATLSLSPGERATLSCRASQSISDYLHWYQQKPGQSPRLLIKFASQSISGIPARFSGSGSGTDFTLTISSLEPEDFAVYYCQNGHSFSLTFGQGTKLEIKR
notes: human IgG1 / kappa; also called humanized antibody 2F7
- EC50 [1]: 7.32 nM
- EC50 [14]: 986 nM
- EC50 [15]: 463 nM
- EC50 [16]: 771 nM
- EC50 [17]: 1480 nM
- EC50 [18]: 662 nM
- EC50 [19]: 2010 nM
- EC50 [20]: 118 nM
- Kd [2]: 0.757 nM
- koff [2]: 0.000249 s⁻¹
- kon [2]: 329000 M⁻¹ s⁻¹
